# Patent publication US9599627B2, “NMR methods for monitoring blood clot formation” (T2 Biosystems, Inc., priority 2011, dated 2017)
# Tests used:
# [1] = test system: fibrin; experiment: Simulated fibrinolysis in healthy patient blood, T2Coagulation T2B versus TEG LY30; assay type: cell-based, human; details: kaolin runs
# Procedure: Five different healthy patient samples were used to test whether T2Coagulation was sensitive to fibrinolysis. Addition of tissue plasminogen activator (TPA) was used to simulate fibrinolysis by adding it at two levels to healthy patient blood. TPA cleaves fibrin as it forms. It was observed that fibrinolysis can be detected within 10 minutes on T2Coagulation, which is less than half the time required for detection on TEG. For all five patients there was a clear difference between healthy and fibrinolytic samples.
# There are several potential features that can be used for this correlation. Three that were investigated were the difference between (i) the minimum and maximum T2B values (FIG. 13), (ii) the average of the T2B values over the final 25 minutes of the T2B curves, and (iii) the T2B values at 10 minutes. All had correlations with R^2 values between 0.72 and 0.79. The correlation plots show a higher sensitivity of T2Coagulation for fibrinolysis than TEG. This can be seen by the groupings for the different levels of fibrinolysis in FIG. 13. The healthy patient samples are circled with the solid line. […] The T2Coagulation T2B term can be detected in as little as 10 minutes, which is much faster than the TEG LY30 term can be detected, indicating the utility of the T2Coagulation signal for more rapid measurement of fibrinolysis.
# [2] = test system: whole blood fibrinolysis; experiment: T2MR whole blood fibrinolysis with spiked TPA; assay type: cell-based, human; details: TPA 100 U/mL, blood from a healthy donor
# Procedure: The T2MR surface is also sensitive to whole blood fibrinolysis. To assess this, healthy donor samples were spiked with tissue plasminogen activator (TPA).
# TPA was added at 100 U/mL to blood from a healthy donor. In the absence of TPA (see FIG. 27a) two stable peaks form at the expected clotting time. With 100 U/mL of TPA (see FIG. 27b) the clot forms at the expected time, but proves to be unstable after 20-30 minutes. Both the instability and the distance between the final T2 peaks indicate sensitivity to fibrinolysis induced by the presence of TPA.
# The T2MR effect on fibrinolysis was expressed in AU values (arbitrary units; see FIG. 27c) obtained by calculating the difference between the maximum and minimum T2 value observed for the clot signal (or T2B) in the T2 time curve.
# Fibrinolysis was monitored by T2 magnetic resonance (T2MR) in five patient blood samples with and without the addition of TPA (100 U/mL) (FIG. 27c). […] All other samples required addition of TPA to induce fibrinolysis, as confirmed by the reference method.
# [3] = test system: whole blood sample; experiment: TEG clot strength (MA) of whole blood samples containing abciximab; assay type: cell-based, human; details: patient sample 29494
# Procedure: The TEG Hemostasis Analyzer provides quantitative and qualitative measurements of the physical properties of a clot (Samara et al., Thromb. Res. 115:89-94, 2005). In the present example, the maximum amplitude (MA) and the coagulation time (R) were measured for the thrombin generated clot sample. MA is an indicator of the viscoelasticity of clot formation or clot strength and is dependent on platelet aggregation and fibrin formation and polymerization. R is the period of time of latency until initial fibrin formation and has been correlated with the velocity of thrombin generation.
# The clotting of a whole blood sample was perturbed using the antithrombotic agent abciximab (ReoPro®). Abciximab is the Fab fragment of a human-murine monoclonal antibody that binds to the Ith/IIIa receptor of human platelets and inhibits platelet aggregation. Abciximab serves to inhibit the retraction of a clot during the clotting process.
# Samples containing abciximab were prepared according to the following procedure and referenced in the application and Figures by a number corresponding to the concentration of abciximab in units of μg/mL.
# 1. Blood was drawn from normal donors into six citrate tubes. Normal donors must not have taken aspirin or any anti-platelet drug in the past two weeks.
# 2. The six tubes of blood were pooled and mixed gently by inversion eight to ten times. Samples were used within two hours of collection.
# 3. A abciximab solution (10 mg/5 mL) was diluted at a ratio of 1:4 using saline as a diluent to form “solution 1.”
# 4. The blood was spiked with solution 1 and saline according to Table 5
# 5. […]
# In a second experiment, five aliquots of patient sample 29494 were prepared with different concentrations (0, 2, 4, 8, and 0 μg/mL) of abciximab prior to initiation of the clotting process. The T2 relaxations times for the samples were measured in series, with each set of measurements lasting approximately 50 min. […] The corresponding TEG-determined MA values for these samples was 60.7, 61.4, 30.4, and 22.0, respectively.
# [4] = test system: human platelets; experiment: T2 relaxation 3D plots of clotting whole blood containing abciximab; assay type: cell-based
# Procedure: T2 relaxation rate data was collected from CK blood samples drawn from healthy patients. For each sample, a series of T2 decay curves were measured over a period of 50 minutes. The decay curves were each processed using an inverse Laplace transform (ILT CONTIN) to provide an array of curves showing T2 intensity as a function of T2 time. […] FIG. 20 illustrates the 3D data sets for patient samples 29328 and 29350 collected on a Bruker minispec. […] At a time between 5 minutes and 30 minutes, the single water population diverged into two significant water populations. These two water populations correspond to the two components of the clot, i.e., the retracted clot and the serum surrounding the retracted clot. […] For some samples these two peaks were not entirely resolved. […]
# In a first experiment, four aliquots of patient sample 29488 were prepared with different concentrations of abciximab (0, 2, 4, and 8 μg/mL) prior to initiation of the clotting process. The T2 relaxation times for the four samples were measuring over the course of clot formation and the corresponding 3D plots were determined using the technique described in Example 13. […] This physical change is evidenced and quantified in the corresponding 3D plots (FIG. 21), showing fast exchange of water within the uniform sample at the highest concentration of abciximab.
molecule,measurement,setting,value
"Cathflo®: recombinant alteplase manufactured by Genentech (protein, UniProt P00750 36-562, looked up, alteplase, recombinant alteplase manufactured by Genentech) Tissue-type plasminogen …: SYQVICRDEKTQMIYQQHQSWLRPVLRSNRVEYCWCNSGRAQCHSVPVKSCSEPRCFNGGTCQQALYFSDFVCQCPEGFAGKCCEIDTRATCYEDQGISYRGTWSTAESGAECTNWNSSALAQKPYSGRRPDAIRLGLGNHNYCRNPDRDSKPWCYVFKAGKYSSEFCSTPACSEGNSDCYFGNGSAYRGTHSLTESGASCLPWNSMILIGKVYTAQNPSAQALGLGKHNYCRNPDGDAKPWCHVLKNRRLTWEYCDVPSCSTCGLRQYSQPQFRIKGGLFADIASHPWQAAIFAKHRRSPGERFLCGGILISSCWILSAAHCFQERFPPHHLTVILGRTYRVVPGEEEQKFEVEKYIVHKEFDDDTYDNDIALLQLKSDSSRCAQESSVVRTVCLPPADLQLPDWTECELSGYGKHEALSPFYSERLKEAHVRLYPSSRCTSQHLLNRTVTDNMLCAGDTRSGGPQANLHDACQGDSGGPLVCLNDGRMTLVGIISWGLGCGQKDVPGVYTKVTNYLDWIRDNMRP",degree of fibrinolysis of samples,[1]; 60 ng/mL Cathflo in healthy patient blood,partially fibrinolytic
same,degree of fibrinolysis of samples,[1]; 118 ng/mL Cathflo in healthy patient blood,fully fibrinolytic
"tissue plasminogen activator (protein, UniProt P00750 36-562, looked up, cleaves fibrin as it forms) Tissue-type plasminogen …: SYQVICRDEKTQMIYQQHQSWLRPVLRSNRVEYCWCNSGRAQCHSVPVKSCSEPRCFNGGTCQQALYFSDFVCQCPEGFAGKCCEIDTRATCYEDQGISYRGTWSTAESGAECTNWNSSALAQKPYSGRRPDAIRLGLGNHNYCRNPDRDSKPWCYVFKAGKYSSEFCSTPACSEGNSDCYFGNGSAYRGTHSLTESGASCLPWNSMILIGKVYTAQNPSAQALGLGKHNYCRNPDGDAKPWCHVLKNRRLTWEYCDVPSCSTCGLRQYSQPQFRIKGGLFADIASHPWQAAIFAKHRRSPGERFLCGGILISSCWILSAAHCFQERFPPHHLTVILGRTYRVVPGEEEQKFEVEKYIVHKEFDDDTYDNDIALLQLKSDSSRCAQESSVVRTVCLPPADLQLPDWTECELSGYGKHEALSPFYSERLKEAHVRLYPSSRCTSQHLLNRTVTDNMLCAGDTRSGGPQANLHDACQGDSGGPLVCLNDGRMTLVGIISWGLGCGQKDVPGVYTKVTNYLDWIRDNMRP",time after which the clot proves to be unstable,[2],20 to 30 min
"abciximab (antibody, chains of the INN, looked up, V domains shown, Fab) VH: EVQLQQSGTVLARPGASVKMSCEASGYTFTNYWMHWVKQRPGQGLEWIGAIYPGNSDTSYIQKFKGKAKLTAVTSTTSVYMELSSLTNEDSAVYYCTLYDGYYVFAYWGQGTLVTVSA VL: EIVLTQSPVTLSVTPGDSVSLSCRASRDISNNLHWFQQTSHESPRLLIKYASQSMSGIPSRFSGSGSGTDFTLSINSVETEDFGMYFCQQTNSWPYTFGGGTKLEIK",TEG-determined MA value,[3]; abciximab 2 μg/mL,61.4
same,TEG-determined MA value,[3]; abciximab 4 μg/mL,30.4
same,TEG-determined MA value,[3]; abciximab 8 μg/mL,22.0
same,effect on clot associated T2 signal intensity,"[4]; 8 μg/mL Reopro, T2reader, versus native sample",reduces the signal intensity of the clot associated signal
same,phases (retracted clot and serum water populations) visible within the clot,"[4]; highest concentration of abciximab (8 μg/mL), patient sample 29488, Bruker minispec",no longer two phases visible within the clot
